As usually defined, the EC50 is the midpoint of the concentration-response curve.

For assay [1], the target named is T1, human GPRC5D (human, UniProt Q9NZD1 1-345).
T1 construct: whole, on cells; also called hGPRC5D; G-protein coupled receptor family C group 5 member D
The assay is described as follows: FACS, OPM-2 cells. The source says: (§1) The subcloning plates were screened by Mirrorball assay and the subclones with good binding ability were expanded to 24-wells for confirmation tests. The specificity and cross-reactivity of these subclones were confirmed with FACS analysis. Briefly, parental HEK293T, HEK293T cells stably over-expressing human GPRC5D protein (i.e., HEK293T-hGPRC5D), HEK293T cells stably over-expressing cynomolgus monkey GPRC5D protein (i.e., HEK293T-cynoGPRC5D), HEK293T cells stably over-expressing mouse GPRC5D protein (i.e., HEK293T-mGPRC5D), and OPM2 cells were incubated with antibodies produced by each subclone, respectively. Fluorescent dye-conjugated secondary antibody was used to detect the binding of the primary antibody with the cells. Median fluorescence intensity (MFI) was measured by FACS analysis,
(§2) As a result, 21 antibodies were discovered with unique sequences showing positive binding with HEK293T-hGPRC5D and OPM2 cells. Among which, some clones could also bind with HEK293T-cynoGPRC5D and/or HEK293T-mGPRC5D. […] ATG596 was a positive human IgG1 control antibody which comprises a VH region having an amino acid sequence as set forth in SEQ ID NO: 199, and a VL region having an amino acid sequence as set forth in SEQ ID NO: 200.
For orientation: In flow cytometry, cells or beads pass a laser one at a time.

For assay [2], the target named is T1, human GPRC5D. The assay is described as follows: FACS, HEK293T-hGPRC5D cells.
From the text: as §1, §2

Assay [3] concerns the target T2, mouse GPRC5D (mouse, UniProt Q9JIL6 1-344).
T2 construct: whole, on cells; HEK293T-mGPRC5D cells; also called mGPRC5D; murine GPRC5D
T2 sequence (looked up): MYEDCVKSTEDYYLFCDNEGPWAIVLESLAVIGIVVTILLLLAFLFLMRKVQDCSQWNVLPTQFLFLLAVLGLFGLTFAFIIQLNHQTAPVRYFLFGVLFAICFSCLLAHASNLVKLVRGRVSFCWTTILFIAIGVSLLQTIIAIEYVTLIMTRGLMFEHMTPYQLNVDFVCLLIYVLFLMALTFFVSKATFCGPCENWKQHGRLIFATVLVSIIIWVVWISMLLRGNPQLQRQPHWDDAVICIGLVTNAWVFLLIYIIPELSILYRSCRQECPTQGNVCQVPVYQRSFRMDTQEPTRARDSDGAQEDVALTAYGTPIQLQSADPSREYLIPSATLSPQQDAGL
The experiment in a line: FACS, HEK293T-mGPRC5D cells.
From the text: as §1, §2

Assay [4] addresses T3, cynomolgus monkey GPRC5D (cynomolgus monkey).
T3 construct: whole, on cells; HEK293T-cynoGPRC5D cells; also called cynoGPRC5D
The experiment in a line: FACS, HEK293T-cynoGPRC5D cells.
From the text: as §1, §2

In assay [5] the target is T1, human GPRC5D. The experiment in a line: cell-based or functional assay.

T1 sequence (Q9NZD1 whole entry): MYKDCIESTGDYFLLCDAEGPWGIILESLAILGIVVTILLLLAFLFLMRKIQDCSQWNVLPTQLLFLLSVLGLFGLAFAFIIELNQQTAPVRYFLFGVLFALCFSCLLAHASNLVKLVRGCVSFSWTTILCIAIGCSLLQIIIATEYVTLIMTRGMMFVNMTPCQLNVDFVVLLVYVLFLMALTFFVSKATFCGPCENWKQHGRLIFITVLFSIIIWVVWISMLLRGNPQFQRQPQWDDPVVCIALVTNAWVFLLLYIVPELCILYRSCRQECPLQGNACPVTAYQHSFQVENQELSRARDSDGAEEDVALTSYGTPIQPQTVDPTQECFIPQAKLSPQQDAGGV

B1: 87A3G8 (antibody, V domains shown)
VH: QVQLKESGPGLVAPSQSLSITCTVSGFSLSSYSVYWVRQPPGKGLEWLGVIWAGGSTNYNSALMSRLSINKDKSKSQVFLKMNSLQTDDSAIYYCAMRWLPRGLDFWGQGTSVTVSS
VL: DIVMTQSHKFMSTSVGDRVSITCKASQDVGTAVAWYQQKPGQSPKLLIYWASTRHTGVPDRFTGSGSGTDFTLTISNVQSEDLADYFCQQYSTYYTFGGGTKLEIK
notes: Mouse monoclonal antibody from hybridoma subclone
As for B1, the “% Positive” value in assay [1] came out at 92.7%; in assay [2], 88.6%; in assay [3], 46.2%; in assay [4], 76.7%. In addition, the MFI in assay [1] came out at 451; in assay [2], 7380; in assay [3] it was 178; in assay [4], 3960.

B2: 90G6H3 (antibody, V domains shown)
VH: QAYLQQSGAELVRSGASVKMSCKASGYTFTSYIMHWVKQTPGQGLEWIGYIYPGNGGTNYNQKFKDKATLSADTSSSTAYMQINSLTSEDSAVYFCARWGLRQGFAYWGQGTLVSVSA
VL: DIVMTQSQKFMSTSVGDRVSVTCKASQNVGGNVAWYQQKPGQSPKALIYSTSYRNSGVPDRFTGSGSGTDFTLTISNVQSEDLAEYFCQQYNSYPFTFGSGTKLEIR
notes: as for B1
Regarding B2, the “% Positive” value in assay [1] amounted to 97.3%; in assay [2], 96.7%; in assay [3] it was 87.4%; in assay [4], 99.4%. In addition, the MFI turned out to be 712 in assay [1], 4940 in assay [2], 2230 in assay [3] and 11400 in assay [4].

B3: Bis-83A9B8 (bispecific antibody)
chain 1: EVQLQQSGPELVKPGASVKMSCKASGYTFSNYVIHWVKQKPGQGLEWIGYFNPYNDGSKYNEKFKGKATLTSDKSSSTAYMELSSLTSEDSAVYYCARGGVRRYFDVWGAGTTVTVSS
chain 2: GGGGSGGGGSGGGGSEVQLVESGGGLVQPGRSLRLSCAASGFTFDNYAMHWVRQAPGKGLEWVSGISWNSGSIGYADSVKGRFTISRDNAKNSLYLQMNSLRAEDTALYYCAKDSRGYGDYSRGGAYWGQGTLVTVSSEIVMTQSPATLSVSPGERATLSCRASQSVSSNLAWYQQKPGQAPRLLIYGASTRATGIPARFSGSGSGTEFTLTISSLQSEDFAVYYCQQYNNWPWTFGQGTKVEIK
chain 3: DIQMTQSPSSLSASLGERVSLTCRASQDIGDNLNWLQQEPDGTIKRLIYATFSLDSGVPKRFSGSRSGSVYSLTISRLESEDFVDYFCLHYASFPYTFGGGTKLEIK
As to B3, in assay [5], the “EC50” value was found to be 1.9 nM and the Top killing % turned out to be 66.9%.

B4: 98A3A8 (antibody, V domains shown)
VH: EVQLQQSGPELVKPGASVKMSCKASGYTFTYYVTHWVRQKPGQGLEWIGYINPYNDGTMFNEKFKGKATLTSDKSSSTAYMEFSSLTSEDSAVFYCARGGVRRYFDVWGAGTTVTVSS
VL: DIQMTQSPSSLSASLGERVSLTCRASQDIGSNLNWLQQKPDGTIKRLIYATSSLDSGVPKRFSGSRSGSDYSLTINSLESEDFVDYYCLQYASFPYTFGGGTKLEIK
notes: as for B1
Turning to B4, the “% Positive” value in assay [1] was 98.7%; in assay [2] it was 93.2%; in assay [3] it was 89.4%; in assay [4], 95.3%. Also, the MFI was found to be 962 in assay [1], 2070 in assay [2], 566 in assay [3] and 2070 in assay [4].

B5: 96C9E7 (antibody, V domains shown)
VH: EVQLQQSGPELVKPGASVKMSCKASGYTFTYYILHWVKQKPGQGLEWIGYFNPYNDGNKFNERFRGKATLTSDKSSSTAYMELNSLTSEDSAVYFCARGGVRRYFDVWGAGTTVTVSS
VL: DIQMTQSPSSLSASLGERVSLTCRASQDIGSNLNWLQQEPDGTIKRLISATFSLDSGVPKRFSGSRSGSDYSLTISSLESEDFVNYYCLQYASFPYTFGGGTKLEIK
notes: as for B1
B5: the “% Positive” value is 99.9% in assay [1], 58.8% in assay [2], 49.2% in assay [3] and 71.7% in assay [4]. For the same molecule, the MFI in assay [1] was 1930; in assay [2], 680; in assay [3] it was 202; in assay [4] it was 4020.

B6: 110B4H5 (antibody, V domains shown)
VH: EVQLQQSGPELVKPGASVKMSCKASGYTFTFYIMHWVKQKPGQGPEWIGYINPYNDGTKYNAKFKGKATLSSDRSSSTAYMELSSLTSEDSAVYYCARGGVRRYFDVWGAGTPVTVSS
VL: DIQMTQSPSSLSASLGERVSLTCRSSQDIGSNLNWLQQEPDGTIKRLIYATFSLDSGVPKRFSGSRSGSHYSLTISSLESEDFVVYYCLQYGSFPYTFGGGTKLEIK
notes: as for B1
As to B6, the “% Positive” value in assay [1] turned out to be 98.2%; in assay [2], 98.7%; in assay [3], 78.9%; in assay [4], 96.7%. For the same molecule, the MFI in assay [1] was determined as 894; in assay [2] it was 5250; in assay [3] it was 772; in assay [4], 2470.

B7: 108C4C12 (antibody, V domains shown)
VH: EVQLQQSGPELVKPGASVKMSCKASGYTFTSYVIHWVKQKTGQGLEWIGYFNPYNDGTKYNEEFKGKATLTSDKSSNTAYMELNSLTSDDSAVYFCARGGVRRYFDVWGAGTTVTVSS
VL: DIQMTQSPSSLSASLGERVSLTCRASQDIGSNLNWLQQEPDGTIKRLIYATFGLDSGVPKRFSGSRSGSDYSLTISSLESEDFVDYYCQQYASFPYTFGGGTKLEIK
notes: as for B1
Consider B7, for which the “% Positive” value in assay [1] was determined as 98.3%; in assay [2] it was 96.6%; in assay [3], 65.7%; in assay [4] it was 59.1%. Besides, the MFI is 878 in assay [1], 5010 in assay [2], 274 in assay [3] and 355 in assay [4].

B8: 82A1C10 (antibody, V domains shown)
VH: QVQLKESGPGLVAPSQSLSITCTVSGFSLTNYAVTWVRQPPGKGLEWLGVIWGDGSTYYHSALVSRLSITKDNSRTQVLLKLNSLQTDDTARYYCAKGGYSPFAYWGQGTLVTVSA
VL: DVVMTQTPLSLPVSLGDQASISCRSSQSLVHSNGNTYLHWYLQKPGQSPKLLIFKVSNRFSGVPDRFSGSGSGTDFTLKISRVEAEDLGVYFCSQNTHVPFTFGSGTKLEIK
notes: as for B1
For B8, the “% Positive” value in assay [1] was determined as 94.8%; in assay [2], 99.4%; in assay [3] it was 4.5%; in assay [4] it was 94.2%. Besides, the MFI is 550 in assay [1], 8090 in assay [2], 119 in assay [3] and 1070 in assay [4].

B9: 89F11E3 (antibody, V domains shown)
VH: QVQLQQSGAELARPGASVKMSCKASGYTFTSSTIHWVKQRPGQGLAWIGYIVPSTGYTNYNQKFKDKATLTADKSSSTAYMQLTSLTSEDSAVYYCARSDGYPFGYSMAYWGQGTSVTVSS
VL: DIQMNQSPSSLSASLGDTITITCHASQNINVWLSWYHQKPGNIPKLLIYKASNLHTGVPSRFSGSGSGTGFTLTISRLQPEDIATYYCQQGQSYPFTFGSGTKLEIK
notes: as for B1
For B9, the “% Positive” value is 98.1% in assay [1], 96.7% in assay [2], 74.6% in assay [3] and 98.8% in assay [4]. Besides, the MFI in assay [1] was 999; in assay [2] it was 19200; in assay [3], 1100; in assay [4] it was 16500.

B10: 101B3G3 (antibody, V domains shown)
VH: EVQLQQSGPELVKPGASMKISCKASGYSFTGYTMNWVKQSHGKNLEWIGLINPYNGGTRYNQKFKDKATLTVDKSSSTAYMELLSLTSEDSAVYYCARWLLRYAMDYWGQGTSVTVSS
VL: DIVMTQSQKFMSTSVGDRVSITCKASQNVGNAVAWYQQKPGHSPKLLISSASNRKNGVPDRFTGSGSGTDFTLTVSNMQSEDLADYFCQQYSDSSWTFGGGTKLEIK
notes: as for B1
Turning to B10, the “% Positive” value in assay [1] was found to be 99.6%; in assay [2], 97.9%; in assay [3] it was 85.2%; in assay [4], 57.4%. Moreover, the MFI in assay [1] is 1370; in assay [2], 27100; in assay [3], 1480; in assay [4], 585.

For the origin of these results see US20250368734A1 (ANTENGENE BIOLOGICS, published 2025).
